Among the data in US20240352128A1 (published 2024) are EC50 values, retold here.

Where two headings read alike, the source gives them in different places.

What all share (assay): FACS
On the technique in general: Flow cytometry measures light scatter and fluorescence of single cells or particles in a stream.

The target of experiment [1] is T1, human CD16b as FACS target of FIGS. 6B-10B (human, UniProt O75015 17-200).
T1 chain: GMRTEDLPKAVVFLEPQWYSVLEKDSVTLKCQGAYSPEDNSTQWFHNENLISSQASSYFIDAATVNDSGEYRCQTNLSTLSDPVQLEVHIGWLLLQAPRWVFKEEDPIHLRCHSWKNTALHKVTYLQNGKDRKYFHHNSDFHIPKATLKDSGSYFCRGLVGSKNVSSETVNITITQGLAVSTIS

Experiment [2] concerns the target T2, human CD16a on HEK293 cells expressing human CD16a (constructed by Genscript) (human, UniProt P08637 17-254).
Experiment [3] deals with T3, cynomolgus monkey CD16a on HEK293 cells expressing cyno monkey CD16a (constructed by Genscript) (cynomolgus monkey, UniProt Q8SPW2 17-254).
T3 chain: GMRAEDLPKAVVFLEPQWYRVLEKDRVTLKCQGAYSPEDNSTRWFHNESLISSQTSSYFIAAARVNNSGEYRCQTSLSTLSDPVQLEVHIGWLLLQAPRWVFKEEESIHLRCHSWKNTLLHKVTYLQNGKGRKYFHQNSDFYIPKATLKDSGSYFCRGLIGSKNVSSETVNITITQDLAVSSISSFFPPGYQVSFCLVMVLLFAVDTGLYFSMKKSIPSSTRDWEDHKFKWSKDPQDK

Experiment [4] has as its target T1, human CD16b as FACS target of FIGS. ….
In experiment [5] the target is T2, human CD16a on HEK293 cells expressing …. The source holds these as a separate data set.

T2 sequence (P08637 17-254): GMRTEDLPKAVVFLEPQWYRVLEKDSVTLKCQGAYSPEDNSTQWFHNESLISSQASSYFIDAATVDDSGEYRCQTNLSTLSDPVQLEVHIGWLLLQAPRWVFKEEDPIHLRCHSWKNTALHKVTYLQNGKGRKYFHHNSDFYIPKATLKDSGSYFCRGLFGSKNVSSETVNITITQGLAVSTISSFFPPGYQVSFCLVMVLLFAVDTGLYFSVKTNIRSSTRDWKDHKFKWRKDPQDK

B1: pTT5-AR8820-3.1 mIgG1Fc (Fc fusion)
heavy: EVQLVESGGGLVQPGGSLRLSCAASGSSISRYAMAWYRQAPGKGRELVAVVRITGSPIYADFVGGRFTISRDNAKNSLYLQMNSLRAEDTAVYYCATGNFNTYTRRYSPSETWGQGTLVTVSSVPRDCGCKPCICTVPEVSSVFIFPPKPKDVLTITLTPKVTCVVVDISKDDPEVQFSWFVDDVEVHTAQTQPREEQFNSTFRSVSELPIMHQDWLNGKEFKCRVNSAAFPAPIEKTISKTKGRPKAPQVYTIPPPKEQMAKDKVSLTCMITDFFPEDITVEWQWNGQPAENYKNTQPIMDTDGSYFVYSKLNVQKSNWEAGNTFTCSVLHEGLHNHHTEKSLSHSPGK
The term EC50 denotes the concentration at which the effect is half-maximal. In the case of B1, the EC50 in experiment [1] amounted to 62.3 nM; in experiment [2] it was 0.419 nM; in experiment [3] it was 0.738 nM.

B2: pTT5-AR8820-1.2mIgG1Fc (Fc fusion)
heavy: QVQLVESGGGVVQPGGSLRLSCAASGSSISRYAMAWYRQAPGKGREWVAVVRITGSPIYADFVGGRFTISRDNSKNTLYLQMNSLRAEDTAVYYCATGNFNTYTRRYSPSETWGKGTTVTVSSVPRDCGCKPCICTVPEVSSVFIFPPKPKDVLTITLTPKVTCVVVDISKDDPEVQFSWFVDDVEVHTAQTQPREEQFNSTFRSVSELPIMHQDWLNGKEFKCRVNSAAFPAPIEKTISKTKGRPKAPQVYTIPPPKEQMAKDKVSLTCMITDFFPEDITVEWQWNGQPAENYKNTQPIMDTDGSYFVYSKLNVQKSNWEAGNTFTCSVLHEGLHNHHTEKSLSHSPGK
In the case of B2, the 50% effective concentration (EC50) is around 497 nM in experiment [4], 0.47 nM in experiment [5] and 0.914 nM in experiment [3].

B3: pTT5-AR8820-3.3 mIgG1Fc (Fc fusion)
VHH-Fc: EVQLVESGGGLVQPGGSLRLSCAASGSSISRYAMAWYRQAPGKGRELVAVVRITGSPIYADFVGGRFTISRDNAKNSLYLQMNSLRAEDTAVYYCNTGNFNTYTRRYSPSETWGQGTLVTVSSVPRDCGCKPCICTVPEVSSVFIFPPKPKDVLTITLTPKVTCVVVDISKDDPEVQFSWFVDDVEVHTAQTQPREEQFNSTFRSVSELPIMHQDWLNGKEFKCRVNSAAFPAPIEKTISKTKGRPKAPQVYTIPPPKEQMAKDKVSLTCMITDFFPEDITVEWQWNGQPAENYKNTQPIMDTDGSYFVYSKLNVQKSNWEAGNTFTCSVLHEGLHNHHTEKSLSHSPGK
Take B3: the EC50 stood at 61.8 nM in experiment [1], 0.452 nM in experiment [2] and 0.751 nM in experiment [3].
